B1: ACTN1 (protein)
chain: MDHYDSQQTNDYMQPEEDWDRDLLLDPAWEKQQRKTFTAWCNSHLRKAGTQIENIEEDFRDGLKLMLLLEVISGERLAKPERGKMRVHKISNVNKALDFIASKGVKLVSIGAEEIVDGNVKMTLGMIWTIILRFAIQDISVEETSAKEGLLLWCQRKTAPYKNVNIQNFHISWKDGLGFCALIHRHRPELIDYGKLRKDDPLTNLNTAFDVAEKYLDIPKMLDAEDIVGTARPDEKAIMTYVSSFYHAFSGAQKAETAANRICKVLAVNQENEQLMEDYEKLASDLLEWIRRTIPWLENRVPENTMHAMQQKLEDFRDYRRLHKPPKVQEKCQLEINFNTLQTKLRLSNRPAFMPSEGRMVSDINNAWGCLEQVEKGYEEWLLNEIRRLERLDHLAEKFRQKASIHEAWTDGKEAMLRQKDYETATLSEIKALLKKHEAFESDLAAHQDRVEQIAAIAQELNELDYYDSPSVNARCQKICDQWDNLGALTQKRREALERTEKLLETIDQLYLEYAKRAAPFNNWMEGAMEDLQDTFIVHTIEEIQGLTTAHEQFKATLPDADKERLAILGIHNEVSKIVQTYHVNMAGTNPYTTITPQEINGKWDHVRQLVPRRDQALTEEHARQQHNERLRKQFGAQANVIGPWIQTKMEEIGRISIEMHGTLEDQLSHLRQYEKSIVNYKPKIDQLEGDHQLIQEALIFDNKHTNYTMEHIRVGWEQLLTTIARTINEVENQILTRDAKGISQEQMNEFRASFNHFDRDHSGTLGPEEFKACLISLGYDIGNDPQGEAEFARIMSIVDPNRLGVVTFQAFIDFMSRETADTDTADQVMASFKILAGDKNYITMDELRRELPPDQAEYCIARMAPYTGPDSVPGALDYMSFSTALYGESDL
B2: USP11 (protein)
chain: MAVAPRLFGGLCFRFRDQNPEVAVEGRLPISHSCVGCRRERTAMATVAANPAAAAAAVAAAAAVTEDREPQHEELPGLDSQWRQIENGESGRERPLRAGESWFLVEKHWYKQWEAYVQGGDQDSSTFPGCINNATLFQDEINWRLKEGLVEGEDYVLLPAAAWHYLVSWYGLEHGQPPIERKVIELPNIQKVEVYPVELLLVRHNDLGKSHTVQFSHTDSIGLVLRTARERFLVEPQEDTRLWAKNSEGSLDRLYDTHITVLDAALETGQLIIMETRKKDGTWPSAQLHVMNNNMSEEDEDFKGQPGICGLTNLGNTCFMNSALQCLSNVPQLTEYFLNNCYLEELNFRNPLGMKGEIAEAYADLVKQAWSGHHRSIVPHVFKNKVGHFASQFLGYQQHDSQELLSFLLDGLHEDLNRVKKKEYVELCDAAGRPDQEVAQEAWQNHKRRNDSVIVDTFHGLFKSTLVCPDCGNVSVTFDPFCYLSVPLPISHKRVLEVFFIPMDPRRKPEQHRLVVPKKGKISDLCVALSKHTGISPERMMVADVFSHRFYKLYQLEEPLSSILDRDDIFVYEVSGRIEAIEGSREDIVVPVYLRERTPARDYNNSYYGLMLFGHPLLVSVPRDRFTWEGLYNVLMYRLSRYVTKPNSDDEDDGDEKEDDEEDKDDVPGPSTGGSLRDPEPEQAGPSSGVTNRCPFLLDNCLGTSQWPPRRRRKQLFTLQTVNSNGTSDRTTSPEEVHAQPYIAIDWEPEMKKRYYDEVEAEGYVKHDCVGYVMKKAPVRLQECIELFTTVETLEKENPWYCPSCKQHQLATKKLDLWMLPEILIIHLKRFSYTKFSREKLDTLVEFPIRDLDFSEFVIQPQNESNPELYKYDLIAVSNHYGGMRDGHYTTFACNKDSGQWHYFDDNSVSPVNENQIESKAAYVLFYQRQDVARRLLSPAGSSGAPASPACSSPPSSEFMDVN
B3: DBN1 (protein)
chain: AGVSFSGHRLELLAAYEEVIREESAADWALYTYEDGSDDLKLAASGEGGLQELSGHFENQKVMYGFCSVKDSQAALPKYVLINWVGEDVPDARKCACASHVAKVAEFFQGVDVIVNASSVEDIDAGAIGQRLSNGLARLSSPVLHRLRLREDENAEPVGTTYQKTDAAVEMKRINREQFWEQAKKEEELRKEEERKKALDERLRFEQERMEQERQEQEERERRYREREQQIEEHRRKQQTLEAEEAKRRLKEQSIFGDHRDEEEETHMKKSESEVEEAAAIIAQRPDNPREFFKQQERVASASAGSCDVPSPFNHRPGSHLDSHRRMAPTPIPTRSPSDSSTASTPVAEQIERALDEVTSSQPPPLPPPPPPAQETQEPSPILDSEETRAAAPQAWAGPMEEPPQAQAPPRGPGSPAEDLMFMESAEQAVLAAPVEPATADATEIHDAADTIETDTATADTTVANNVPPAATSLIDLWPGNGEGASTLQGEPRAPTPPSGTEVTLAEVPLLDEVAPEPLLPAGEGCATLLNFDELPEPPATFCDPEEVEGESLAAPQTPTLPSALEELEQEQEPEPHLLTNGETTQKEGTQASEGYFSQSQEEEFAQSEELCAKAPPPVFYNKPPEIDITCWDADPVPEEEEGFEGGD
B4: STAT1 (protein)
chain: SQWYELQQLDSKFLEQVHQLYDDSFPMEIRQYLAQWLEKQDWEHAANDVSFATIRFHDLLSQLDDQYSRFSLENNFLLQHNIRKSKRNLQDNFQEDPIQMSMIIYSCLKEERKILENAQRFNQAQSGNIQSTVMLDKQKELDSKVRNVKDKVMCIEHEIKSLEDLQDEYDFKCKTLQNREHETNGVAKSDQKQEQLLLKKMYLMLDNKRKEVVHKIIELLNVTELTQNALINDELVEWKRRQQSACIGGPPNACLDQLQNWFTIVAESLQQVRQQLKKLEELEQKYTYEHDPITKNKQVLWDRTFSLFQQLIQSSFVVERQPCMPTHPQRPLVLKTGVQFTVKLRLLVKLQELNYNLKVKVLFDKDVNERNTVKGFRKFNILGTHTKVMNMEESTNGSLAAEFRHLQLKEQKNAGTRTNEGPLIVTEELHSLSFETQLCQPGLVIDLETTSLPVVVISNVSQLPSGWASILWYNMLVAEPRNLSFFLTPPCARWAQLSEVLSWQFSSVTKRGLNVDQLNMLGEKLLGPNASPDGLIPWTRFCKENINDKNFPFWLWIESILELIKKHLLPLWNDGCIMGFISKERERALLKDQQPGTFLLRFSESSREGAITFTWVERSQNGGEPDFHAVEPYTKKELSAVTFPDIIRNYKVMAAENIPENPLKYLYPNIDKDHAFGKYYSRPKEAPEPMELDGPKGTGYIKTELISVSEVHPSRLQTTDNLLPMSPEEFDEVSRIVGSVEFDSMMNTV
B5: CKAP4 (protein)
chain: MPSAKQRGSKGGHGAASPSEKGAHPSGGADDVAKKPPPAPQQPPPPPAPHPQQHPQQHPQNQAHGKGGHRGGGGGGGKSSSSSSASAAAAAAAASSSASCSRRLGRALNFLFYLALVAAAAFSGWCVHHVLEEVQQVRRSHQDFSRQREELGQGLQGVEQKVQSLQATFGTFESILRSSQHKQDLTEKAVKQGESEVSRISEVLQKLQNEILKDLSDGIHVVKDARERDFTSLENTVEERLTELTKSINDNIAIFTEVQKRSQKEINDMKAKVASLEESEGNKQDLKALKEAVKEIQTSAKSREWDMEALRSTLQTMESDIYTEVRELVSLKQEQQAFKEAADTERLALQALTEKLLRSEESVSRLPEEIRRLEEELRQLKSDSHGPKEDGGFRHSEAFEALQQKSQGLDSRLQHVEDGVLSMQVASARQTESLESLLSKSQEHEQRLAALQGRLEGLGSSEADQDGLASTVRSLGETQLVLYGDVEELKRSVGELPSTVESLQKVQEQVHTLLSQDQAQAARLPPQDFLDRLSSLDNLKASVSQVEADLKMLRTAVDSLVAYSVKIETNENNLESAKGLLDDLRNDLDRLFVKVEKIHEKV
B6: CAVIN1 (protein)
chain: MEDPTLYIVERPLPGYPDAEAPEPSSAGAQAAEEPSGAGSEELIKSDQVNGVLVLSLLDKIIGAVDQIQLTQAQLEERQAEMEGAVQSIQGELSKLGKAHATTSNTVSKLLEKVRKVSVNVKTVRGSLERQAGQIKKLEVNEAELLRRRNFKVMIYQDEVKLPAKLSISKSLKESEALPEKEGEELGEGERPEEDAAALELSSDEAVEVEEVIEESRAERIKRSGLRRVDDFKKAFSKEKMEKTKVRTRENLEKTRLKTKENLEKTRHTLEKRMNKLGTRLVPAERREKLKTSRDKLRKSFTPDHVVYARSKTAVYKVPPFTFHVKKIREGQVEVLKATEMVEVGADDDEGGAERGEAGDLRRGSSPDVHALLEITEESDAVLVDKSDSD

Test system: proteins that co-immunoprecipitated with DUX4-CTD constructs expressed in MB135 myoblasts
Assay: LC-MS of proteins co-immunoprecipitated with DUX4-CTD (Table 1) and western validation
Format: binding, human
Parameters: key to 4. mL1dL2 + Dox + IFNG / 4. + IFNG mix / 4. longCTD + Dox + IFNG / 3. + IFNg + Dox longCTD / 3. + Dox longCTD / 3. + IFNG longCTD: peptide-spectrum matches (PSMs) per protein
Settings: kind of count not given; for 4. + IFNG mix: LC-MS value per protein co-immunoprecipitated from MB135 myoblasts, + IFNG mix sample (no Dox); for 4. mL1dL2 + Dox + IFNG: LC-MS value per protein co-immunoprecipitated with DUX4-CTD construct mL1dL2 in MB135 myoblasts
Text: As an unbiased method to identify proteins that interact with the C-terminal region of DUX4, liquid chromatography mass spectroscopy (LC-MS) was used to identify proteins that co-immunoprecipitated with DUX4-CTD constructs expressed in MB135 myoblasts. In the first experiment, MB135iDUX4-CTD cells were used, either untreated, treated with doxycycline alone, or with both doxycycline and IFNG. In the second experiment, MB135iDUX4-CTD and MB135iDUX4mL1dL2 cells were used, both treated with doxycycline and IFNG, compared to these two cell lines untreated and combined as a control. Proteins with a minimum of 2 peptide spectrum matches (PSMs) in at least one sample that were identified in both experiments were assigned to one of ten categories (see Methods) to separate candidate interactors from other categories that might be co-purified because of obligate interactions (e.g., proteasome or ribosome) or might be less likely to be physiologically relevant (e.g., cytoskeletal proteins). Candidate interactors were then ranked based on the total PSMs for that protein across all samples.
Centrifugation at 2500 rcf at 4° C. for 5 min pelleted the nuclei, supernatant was discarded, and nuclei resuspended in 1 mL IP buffer pH 7.4 (25 mM Tris-HCl pH 7.5, 175 mM NaCl, 1 mM EDTA, 0.2% NP-40, 5% glycerol) and incubated for 1 hour at 4° C. with rotation then spun at 21000 rcf for 10 minutes at 4° C. to pellet insoluble debris. Protein concentration was determined using the Pierce BCA Protein Assay Kit (ThermoFisher, 23225). An equivalent amount of protein per sample was pre-cleared with Dynabeads Protein G (Invitrogen) bound to mouse IgG (Abcam #131368) for 1 hour at 4° C. with rotation. FLAG-tagged constructs were then immunoprecipitated with Dynabeads Protein G beads coupled to mouse anti-FLAG M2 mAb (Sigma F3165) for 3 hours at 4° C. with rotation. Beads were washed 3× with 1 mL IP buffer and eluted by adding 2× NuPage LDS Sample Buffer (Thermo Fisher, diluted from 4× with PBS) to the beads and heating for 10 minutes at 70° C.
For LC-MS, anti-FLAG immunoprecipitation was performed with beads cross-linked to the anti-FLAG antibody and the proteins competitively eluted with FLAG peptide. Eluted protein samples were electrophoresed into a NuPage 4-12% Bis-Tris gel, excised, and processed by the Fred Hutchinson Cancer Research Center Proteomics Core. Samples were reduced, alkylated, digested with trypsin, desalted, and run on the Orbitrap Eclipse Tribid Mass Spectrometer (Thermo Fisher). Proteomics data were analyzed using Proteome Discoverer 2.4 against a Uniprot human database that included common contaminants using Sequest HT and Percolator for scoring. […] Proteins that were identified in at least one sample from both independent experiments with at least 2 PSMs in one sample were assigned to one of ten categories: 1, candidates; 2, cytoskeletal associated; 3, cytoskeletal; 4, ribosome/translation associated; 5, proteasome associated; 6, membrane or extracellular; ER, golgi, or vesicle associated; 8, lipid metabolism; 9, chaperones; 10, nuclear import or nuclear membrane associated. The proteins in category 1 were further investigated for interactions with DUX4.

| Molecule | 4. + IFNG mix | 4. mL1dL2 + Dox + IFNG |
| --- | --- | --- |
| B1 | 9 | 22 |
| B2 |  | 1 |
| B3 |  | 2 |
| B4 | 3 | 18 |
| B5 | 24 | 19 |
| B6 | 7 | 16 |

Reference: patent US20250339531A1, “DUX4 POLYPEPTIDES AND NUCLEIC ACIDS FOR TREATING INFLAMMATORY AND AUTOIMMUNE CONDITIONS” (Fred Hutchinson Cancer Center, priority 2021, published 2025)
